Measured values taken from the RNAGym collection of RNA variant scans (doi:10.1073/pnas.2313332121).

B1: TPR t1 (parent)
chain: GACCAAUCUGCCCUCAGAGCUCGAGAACAUCUUCGGAUGCAGAGGAGGCAGGCUUCGGUGGCGCGAUAGCGCCAACGUCCUCAACCUCCAAUGCAUCCCACCACAUGAUGAUGCCUGAAGAGCCUUGGUUUUUUG

Variants of: B1
Assay: polymerase ribozyme fitness, log enrichment relative to wild type (log ratio); higher = more active; in vitro selection for triplet polymerase activity
Summary of the method: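 A single round of triplicate in vitro selection, including frozen incubation at −7 °C, was applied to PCR-built, transcribed mutant libraries of each subunit of a heterodimeric triplet polymerase ribozyme. Illumina sequencing of input and output libraries retained genotypes with ≥10 input reads and ≥1 read per output. Fitness is the base-2 logarithm of genotype enrichment divided by wild-type enrichment, from inverse-variance-weighted replicate averages.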

**Q.** With C8A A111U as the variant, how does the “polymerase ribozyme fitness (log ratio)” value read?
**A.** -1.79

**Q.** For C8A U30A A46C U109G A119U, which “polymerase ribozyme fitness (log ratio)” value is on record?
**A.** -6.8

**Q.** Which “polymerase ribozyme fitness (log ratio)” value does the source give for C8A C12G U54A here?
**A.** 0.0252

**Q.** With U7G U9A G10C A18G A29C as the variant, how does the “polymerase ribozyme fitness (log ratio)” value read?
**A.** -4.02

**Q.** With C8G G48C A90U U112A as the variant, how does the “polymerase ribozyme fitness (log ratio)” value read?
**A.** 0.378

**Q.** Which “polymerase ribozyme fitness (log ratio)” value does the source give for C8G C12A U109A A119C A121G here?
**A.** -5.47

**Q.** With U7G U32A A46U G77A C104A A105U C123G as the variant, how does the “polymerase ribozyme fitness (log ratio)” value read?
**A.** -4.45

**Q.** With C8G C56A C123A as the variant, how does the “polymerase ribozyme fitness (log ratio)” value read?
**A.** 1.29

**Q.** With C8G G52U C73A U92G as the variant, how does the “polymerase ribozyme fitness (log ratio)” value read?
**A.** -2.91

**Q.** With C8A U59C A105G C123A as the variant, how does the “polymerase ribozyme fitness (log ratio)” value read?
**A.** -2.08

**Q.** Which “polymerase ribozyme fitness (log ratio)” value does the source give for U7G C72U U81A A91C G107C U112C here?
**A.** -5.54

**Q.** Which “polymerase ribozyme fitness (log ratio)” value does the source give for C8G A18U G52U A90C here?
**A.** -1.7

**Q.** Which “polymerase ribozyme fitness (log ratio)” value does the source give for C8G C64U G135U here?
**A.** 0.0899

**Q.** Which “polymerase ribozyme fitness (log ratio)” value does the source give for C8A C70U A91C U116A here?
**A.** -2.96

**Q.** For C8A G47U C73G C82U, which “polymerase ribozyme fitness (log ratio)” value is on record?
**A.** -1.82

**Q.** For C8A A26U C94U C124G U125G G127U, which “polymerase ribozyme fitness (log ratio)” value is on record?
**A.** -0.974

**Q.** Which “polymerase ribozyme fitness (log ratio)” value does the source give for C8G C20U C89A A100U C102A here?
**A.** -5.22

**Q.** For U7C G39A C124U, which “polymerase ribozyme fitness (log ratio)” value is on record?
**A.** 0.776

**Q.** With C8G C40A U78C as the variant, how does the “polymerase ribozyme fitness (log ratio)” value read?
**A.** -0.518

**Q.** With C8G C20U A68G G113C as the variant, how does the “polymerase ribozyme fitness (log ratio)” value read?
**A.** -5.52

**Q.** For C8G G47C C82U, which “polymerase ribozyme fitness (log ratio)” value is on record?
**A.** -1.06

**Q.** With U7G U9A A27U C72U U87A U126A as the variant, how does the “polymerase ribozyme fitness (log ratio)” value read?
**A.** -3.36

**Q.** With U7G G36U U96C C104U as the variant, how does the “polymerase ribozyme fitness (log ratio)” value read?
**A.** -3.09

**Q.** With C8A A100U U116G U133A G135U as the variant, how does the “polymerase ribozyme fitness (log ratio)” value read?
**A.** -0.711

**Q.** With U7G A50U C64U G117C as the variant, how does the “polymerase ribozyme fitness (log ratio)” value read?
**A.** -4.92

**Q.** With C8G A18U C98U as the variant, how does the “polymerase ribozyme fitness (log ratio)” value read?
**A.** -2.18

**Q.** Which “polymerase ribozyme fitness (log ratio)” value does the source give for U7G G65U here?
**A.** -5.58

**Q.** Which “polymerase ribozyme fitness (log ratio)” value does the source give for C8A G36U C82A here?
**A.** -0.55

**Q.** For U7G C12G G58A C72U, which “polymerase ribozyme fitness (log ratio)” value is on record?
**A.** 0.394

**Q.** Which “polymerase ribozyme fitness (log ratio)” value does the source give for C8A C62U A74U here?
**A.** 0.227

**Q.** For C8A A41U G69U C86A, which “polymerase ribozyme fitness (log ratio)” value is on record?
**A.** -0.0176

**Q.** With C8A C13G U14G G48A G77A G128C as the variant, how does the “polymerase ribozyme fitness (log ratio)” value read?
**A.** -5.17

**Q.** For C8A A46U, which “polymerase ribozyme fitness (log ratio)” value is on record?
**A.** -1.5

**Q.** For C8G G44A U92A C97U, which “polymerase ribozyme fitness (log ratio)” value is on record?
**A.** -2.59

**Q.** Which “polymerase ribozyme fitness (log ratio)” value does the source give for C8A C11A C82A G93A here?
**A.** -0.542

**Q.** For U7G G110C C124A, which “polymerase ribozyme fitness (log ratio)” value is on record?
**A.** -4.31

**Q.** For C8A C115A U125G, which “polymerase ribozyme fitness (log ratio)” value is on record?
**A.** 1.5

**Q.** Which “polymerase ribozyme fitness (log ratio)” value does the source give for U7G G10A A41G C79A C80A C115A here?
**A.** -3.95

**Q.** Which “polymerase ribozyme fitness (log ratio)” value does the source give for C8G C62U U87A U112G G113U C123U G127A here?
**A.** -4.35

**Q.** With C8A C40A A43C U87G as the variant, how does the “polymerase ribozyme fitness (log ratio)” value read?
**A.** -2.23

**Q.** Which “polymerase ribozyme fitness (log ratio)” value does the source give for C8G C49G G71A U87A C124U here?
**A.** 0.992

**Q.** Which “polymerase ribozyme fitness (log ratio)” value does the source give for U7G G47U G113C here?
**A.** -2.84

**Q.** With C8G C89A A105U as the variant, how does the “polymerase ribozyme fitness (log ratio)” value read?
**A.** -3.66

**Q.** For U7C G47A G48A A90C U112C, which “polymerase ribozyme fitness (log ratio)” value is on record?
**A.** -1.65

**Q.** With U7G C80A C124A as the variant, how does the “polymerase ribozyme fitness (log ratio)” value read?
**A.** -1.1

**Q.** With C8A C11G C13U C20A G36A U78C as the variant, how does the “polymerase ribozyme fitness (log ratio)” value read?
**A.** -3.05

**Q.** For C8A C49U C72A A100C U106G U109A U132C, which “polymerase ribozyme fitness (log ratio)” value is on record?
**A.** -4.59

**Q.** For U7G C22U A68C G93U C115U A121G, which “polymerase ribozyme fitness (log ratio)” value is on record?
**A.** -5.51

**Q.** With U7C U9G A26G as the variant, how does the “polymerase ribozyme fitness (log ratio)” value read?
**A.** -1.4

**Q.** For C8G G45A C56U C72U C94A C101A, which “polymerase ribozyme fitness (log ratio)” value is on record?
**A.** -2.54

**Q.** Which “polymerase ribozyme fitness (log ratio)” value does the source give for C8A C11G C64A A103C A119U G120A here?
**A.** -6.83

**Q.** For C8A G19U, which “polymerase ribozyme fitness (log ratio)” value is on record?
**A.** -2.62

**Q.** With C8A G25U as the variant, how does the “polymerase ribozyme fitness (log ratio)” value read?
**A.** -4.13

**Q.** With C8G C22A C53U C89A C114U G117A G135A as the variant, how does the “polymerase ribozyme fitness (log ratio)” value read?
**A.** -3.7

**Q.** For C8A A100C, which “polymerase ribozyme fitness (log ratio)” value is on record?
**A.** -0.0614

**Q.** Which “polymerase ribozyme fitness (log ratio)” value does the source give for C8A C11A C22A U32G U33C C34A C40G C72U A100U C115U here?
**A.** -6.9

**Q.** For C8G G25A A26G C73U G128A, which “polymerase ribozyme fitness (log ratio)” value is on record?
**A.** -4.47

**Q.** With C8G A27U C104A U133A as the variant, how does the “polymerase ribozyme fitness (log ratio)” value read?
**A.** -3.65

**Q.** Which “polymerase ribozyme fitness (log ratio)” value does the source give for U7C G107A U109A here?
**A.** -4.11

**Q.** For C8G C85U, which “polymerase ribozyme fitness (log ratio)” value is on record?
**A.** -0.269

**Q.** For C8A U21A A84U, which “polymerase ribozyme fitness (log ratio)” value is on record?
**A.** -0.224

**Q.** With C8A C28G C53A as the variant, how does the “polymerase ribozyme fitness (log ratio)” value read?
**A.** -2.01

**Q.** Which “polymerase ribozyme fitness (log ratio)” value does the source give for U7G C73U U78A here?
**A.** 0.634

**Q.** With U7G C72U C115U as the variant, how does the “polymerase ribozyme fitness (log ratio)” value read?
**A.** 0.671

**Q.** For C8A U38G A43C G61C C123A, which “polymerase ribozyme fitness (log ratio)” value is on record?
**A.** -4.73

**Q.** With U7G A18U as the variant, how does the “polymerase ribozyme fitness (log ratio)” value read?
**A.** -0.713

**Q.** With C8G C76U as the variant, how does the “polymerase ribozyme fitness (log ratio)” value read?
**A.** -0.187

**Q.** For C8A G44U G57A C64U, which “polymerase ribozyme fitness (log ratio)” value is on record?
**A.** -0.879

**Q.** With C8A C12G U14C G77C C101A as the variant, how does the “polymerase ribozyme fitness (log ratio)” value read?
**A.** -1.39

**Q.** Which “polymerase ribozyme fitness (log ratio)” value does the source give for C8G C20G C72U A95G here?
**A.** -3.64

**Q.** Which “polymerase ribozyme fitness (log ratio)” value does the source give for C8A A18C C22G here?
**A.** -4.25

**Q.** For C8G A103U, which “polymerase ribozyme fitness (log ratio)” value is on record?
**A.** -3.34

**Q.** For C8A G48A C89U C124U, which “polymerase ribozyme fitness (log ratio)” value is on record?
**A.** 1.22

**Q.** For C8G U9G C12G C49G, which “polymerase ribozyme fitness (log ratio)” value is on record?
**A.** -0.256

**Q.** For U7G A46U G93U, which “polymerase ribozyme fitness (log ratio)” value is on record?
**A.** -2.2

**Q.** Which “polymerase ribozyme fitness (log ratio)” value does the source give for C8A U30C G69U A118U G120A U129G here?
**A.** -1.47

**Q.** With C8A C15A G52C C80A as the variant, how does the “polymerase ribozyme fitness (log ratio)” value read?
**A.** -4.36

**Q.** With C8A A18C G60U as the variant, how does the “polymerase ribozyme fitness (log ratio)” value read?
**A.** -1.62

**Q.** Which “polymerase ribozyme fitness (log ratio)” value does the source give for U7G U78C here?
**A.** 0.451

**Q.** With C8G G10U G69U A95U C102A C114G U129G as the variant, how does the “polymerase ribozyme fitness (log ratio)” value read?
**A.** -2.33

**Q.** With C8G G10U G42A G45C as the variant, how does the “polymerase ribozyme fitness (log ratio)” value read?
**A.** -3.03

**Q.** For U7G U54A C102A U112A U131A, which “polymerase ribozyme fitness (log ratio)” value is on record?
**A.** -0.106

**Q.** Which “polymerase ribozyme fitness (log ratio)” value does the source give for C8G C12A C20U A37C U92A G113U here?
**A.** -1.85

**Q.** With C8G G44A G63U U125G as the variant, how does the “polymerase ribozyme fitness (log ratio)” value read?
**A.** -2.03
